Measured values taken from US20240309104A1 (PROMETHEUS BIOSCIENCES, published 2024).
Where “and” joins values, the source holds several entries; their conditions need not be identical. Identical values can stand only once.

How the values were obtained:
Test in all cases: cell-based or functional assay
[1] = target: T1, TL1A produced by PBMCs in cynomolgus monkey whole blood (cynomolgus monkey, UniProt G7PRK8 72-251)
T1 sequence: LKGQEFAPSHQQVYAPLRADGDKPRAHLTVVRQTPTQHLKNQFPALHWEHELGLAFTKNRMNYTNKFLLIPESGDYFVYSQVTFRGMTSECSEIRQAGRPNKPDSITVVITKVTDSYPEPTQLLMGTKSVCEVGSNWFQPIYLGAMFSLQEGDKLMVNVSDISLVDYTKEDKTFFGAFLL

[2] = target: T2, recombinant human TL1A protein (human, UniProt O95150 72-251)
T2 sequence (looked up): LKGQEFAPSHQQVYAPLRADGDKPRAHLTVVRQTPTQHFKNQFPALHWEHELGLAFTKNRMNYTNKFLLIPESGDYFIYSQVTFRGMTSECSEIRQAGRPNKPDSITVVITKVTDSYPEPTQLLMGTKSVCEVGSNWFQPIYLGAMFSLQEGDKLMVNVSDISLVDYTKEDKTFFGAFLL

[3] = target: T3, recombinant cynomolgus monkey TL1A protein (cynomolgus monkey, UniProt G7PRK8 72-251)
T3 sequence: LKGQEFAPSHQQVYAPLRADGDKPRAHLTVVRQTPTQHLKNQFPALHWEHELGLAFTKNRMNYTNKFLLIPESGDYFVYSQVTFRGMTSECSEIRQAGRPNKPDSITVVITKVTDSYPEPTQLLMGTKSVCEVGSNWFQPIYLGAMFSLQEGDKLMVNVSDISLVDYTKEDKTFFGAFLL

B1: anti-TL1A antibody A219 (antibody, V domains shown)
VH: QVQLVQSGAEVKKPGASVKVSCKASGFDIQDTYMHWVKQRPGQGLEWMGRIDPASGHTKYDPKFQVRVTITRDTSTSTVYLELSSLRSEDTAVYYCARSGGLPDVWGQGTTVTVSS
VL: EIVLTQSPGTLSLSPGERATLSCRASSSVSYMYWYQQKPGQAPRPLIYATSNLASGIPDRFSGSGSGTDFTLTISRLEPEDFAVYYCQQWEGNPRTFGGGTKLEIK
In the case of B1, the “inhibition of the IFN-γ response in monkey whole blood (mean IC50)” value [1] is reported as 1.54 nM and 289 ng/mL, the “inhibition of TL1A-induced caspase activation in TF-1 cells (IC50)” value [2] is reported as 270 pM and the “inhibition of TL1A-induced caspase activation in TF-1 cells (IC50)” value [3] is reported as 590 pM.
